Measurements as given in IntAct's records for PubMed 23219551.

B1: DNA ligase 4 (Homo sapiens), P49917 (parent)
chain: MAASQTSQTVASHVPFADLCSTLERIQKSKGRAEKIRHFREFLDSWRKFHDALHKNHKDVTDSFYPAMRLILPQLERERMAYGIKETMLAKLYIELLNLPRDGKDALKLLNYRTPTGTHGDAGDFAMIAYFVLKPRCLQKGSLTIQQVNDLLDSIASNNSAKRKDLIKKSLLQLITQSSALEQKWLIRMIIKDLKLGVSQQTIFSVFHNDAAELHNVTTDLEKVCRQLHDPSVGLSDISITLFSAFKPMLAAIADIEHIEKDMKHQSFYIETKLDGERMQMHKDGDVYKYFSRNGYNYTDQFGASPTEGSLTPFIHNAFKADIQICILDGEMMAYNPNTQTFMQKGTKFDIKRMVEDSDLQTCYCVFDVLMVNNKKLGHETLRKRYEILSSIFTPIPGRIEIVQKTQAHTKNEVIDALNEAIDKREEGIMVKQPLSIYKPDKRGEGWLKIKPEYVSGLMDELDILIVGGYWGKGSRGGMMSHFLCAVAEKPPPGEKPSVFHTLSRVGSGCTMKELYDLGLKLAKYWKPFHRKAPPSSILCGTEKPEVYIEPCNSVIVQIKAAEIVPSDMYKTGCTLRFPRIEKIRDDKEWHECMTLDDLEQLRGKASGKLASKHLYIGGDDEPQEKKRKAAPKMKKVIGIIEHLKAPNLTNVNKISNIFEDVEFCVMSGTDSQPKPDLENRIAEFGGYIVQNPGPDTYCVIAGSENIRVKNIILSNKHDVVKPAWLLECFKTKSFVPWQPRFMIHMCPSTKEHFAREYDCYGDSYFIDTDLNQLKEVFSGIKNSNEQTPEEMASLIADLEYRYSWDCSPLSMFRRHTVYLDSYAVINDLSTKNEGTRLAIKALELRFHGAKVVSCLAEGVSHVIIGEDHSRVADFKAFRRTFKRKFKILKESWVTDSIDKCELQEENQYLI

Variants of: B1
Conditions: with dcr1c_human DCLRE1C

Variant	effect of a mutation on the interaction
V14A	decreasing interaction strength
F42A;F49A	disrupting interaction strength
D18H	decreasing interaction strength
F42A	disrupting interaction strength
F49A	disrupting interaction strength
